From patent US20260092110A1 (Kyowa Kirin, published 2026)
Substitutions are numbered along the chain they refer to. Names may count otherwise.

How the values were obtained:
[1] = molecular target: T1, rat MOG (rMOG) expressed on HEK293F cells (rat, UniProt Q63345 28-245); assay: flow cytometry on HEK293 cells transiently expressing rat MOG; antibody at 10 µg/mL, RPE-labelled goat anti-human antibody; negative control anti-AVM antibody
T1 construct: also called rMOG/HEK293F
T1 sequence: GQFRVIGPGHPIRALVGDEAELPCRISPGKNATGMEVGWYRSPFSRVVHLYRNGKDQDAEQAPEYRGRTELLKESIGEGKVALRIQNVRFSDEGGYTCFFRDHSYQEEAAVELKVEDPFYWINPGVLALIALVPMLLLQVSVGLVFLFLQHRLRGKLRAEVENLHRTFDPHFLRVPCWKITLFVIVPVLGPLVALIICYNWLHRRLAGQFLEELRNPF
Description: (§1) rMOG/HEK293F, mMOG/IEK293F, cMOG/HEK293 and hMOG/HEK293 cells were suspended in a Staining Buffer (SB) of PBS containing 0.1% NaN₃ and 1% FBS each at a concentration of 5×10⁵ cells/mL and dispensed to a round-bottom 96-well plate (manufactured by Becton Dickinson).
(§2) After centrifugation (2000 rpm, 4° C., two minutes), the supernatants were removed, and the antibodies obtained in Example 6 at 10 μg/mL were added to the pellets. After suspending the pellets, the plate was left to stand at ice temperature for 30 minutes. The supernatants were removed after further centrifugation (2000 rpm, 4° C., two minutes), and the pellets were washed with SB. Then, 1 μg/mL RPE fluorescently labeled goat anti-human antibody (manufactured by […]) was added, and the plate was incubated at ice temperature for 30 minutes.
(§3) After washing with SB, the cells were suspended in SB, and the fluorescence intensities of the cells were measured using a flow cytometer FACS CANTO II (manufactured by Becton Dickinson). As the negative control, an anti-AVM antibody was used.

[2] = molecular target: T2, cynomolgus monkey MOG (cMOG) expressed on HEK293 cells (cynomolgus monkey, UniProt Q9BGS7 30-247); assay: flow cytometry on HEK293 cells transiently expressing cynomolgus monkey MOG; antibody at 10 µg/mL, RPE-labelled goat anti-human antibody; negative control anti-AVM antibody
T2 construct: also called cMOG/HEK293
T2 sequence: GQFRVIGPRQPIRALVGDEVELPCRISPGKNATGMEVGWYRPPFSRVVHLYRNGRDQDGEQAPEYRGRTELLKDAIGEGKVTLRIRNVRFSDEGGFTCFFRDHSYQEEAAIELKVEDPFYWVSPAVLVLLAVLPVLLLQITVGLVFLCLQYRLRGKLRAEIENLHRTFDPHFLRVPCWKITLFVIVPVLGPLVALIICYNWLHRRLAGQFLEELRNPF
Description: as §1, §2, §3

[3] = molecular target: T3, human MOG (hMOG) expressed on HEK293, Expi293F or L929 cells (human, UniProt Q16653 30-247); assay: flow cytometry on HEK293 cells transiently expressing human MOG; antibody at 10 µg/mL, RPE-labelled goat anti-human antibody; negative control anti-AVM antibody
T3 construct: also called hMOG/HEK293; hMOG/HEK293F
T3 chain: T2 sequence with Q10H, R55K, E60D, I111M, A125G
Description: as §1, §2, §3

[4] = molecular target: T4, extracellular domain protein of rat MOG to which GST is added at the C-terminus (rMOG-GST) (rat); assay: SPR Biacore T-100, antibody captured, rMOG-GST analyte
T4 construct: whole construct entry
Description: (§4) The antibodies were immobilized on CM5 sensor chips using a Human antibody Capture kit, and the binding abilities were evaluated using rMOG-GST produced in Example 4 as an analyte. The obtained sensorgrams were analyzed with BIA evaluation software, and the dissociation constants (KD values) were thus calculated.

[5] = molecular target: T5, extracellular domain protein of mouse MOG to which GST is added at the C-terminus (mMOG-GST) (mouse); assay: SPR, antibody captured, mMOG-GST analyte; paragraph 625: KD could not be determined as a unique value
[6] = molecular target: T6, extracellular domain protein of human MOG to which GST is added at the C-terminus (hMOG-GST) (human); assay: SPR, antibody captured, hMOG-GST analyte; ka outside the measurement range
[7] = molecular target: T6, extracellular domain protein of human …; assay: SPR, antibody captured, hMOG-GST analyte
Description: as §4
The results of evaluation of the affinities to human MOG are shown in Table 14, and the results of evaluation of the affinities to mouse MOG are shown in Table 15.

[8] = molecular target: T6, extracellular domain protein of human …; assay: SPR, antibody captured, hMOG-GST analyte; KD not unique (ka outside range)
[9] = molecular target: T5, extracellular domain protein of mouse …; assay: SPR, antibody captured, mMOG-GST analyte; paragraph 625: ka of MOG01 scFv-hG4PE outside the measurement range
[10] = molecular target: T5, extracellular domain protein of mouse …; assay: SPR, antibody captured, mMOG-GST analyte
[11] = molecular target: T2, cynomolgus monkey MOG (cMOG) expressed …; assay: flow cytometry on HEK293 cells transiently expressing cynomolgus monkey MOG; RPE-labelled goat anti-human antibody; negative control anti-AVM antibody
[12] = molecular target: T3, human MOG (hMOG) expressed on HEK293, …; assay: flow cytometry on L929 cells expressing human MOG (hMOG/L929); antibody titrated, RPE-labelled goat anti-human antibody
Text: (§5) pEF6_hMOG obtained in Example 5 was introduced to mouse connective tissue-derived fibroblast L929 cells [American Type Culture Collection (ATCC) No.: CCL-1] using HilyMax (manufactured by Dojindo Laboratories). The gene-transfected cells were selected using an antibiotic substance, Blasticidin (manufactured by Invitrogen) and then cloned by the limiting dilution method. Using the L929 cells expressing hMOG on the cell surface (abbreviated as hMOG/L929 below), the reactivities of the bispecific antibodies were analyzed by the method described below.
(§6) The hMOG/L929 cells were suspended in a Staining Buffer (SB) of PBS containing 0.1% NaN₃ and 1% FBS and dispensed to a round-bottom 96-well plate (manufactured by Becton Dickinson). […] After suspending the pellets, the plate was left to stand at ice temperature for 30 minutes. The supernatants were removed after further centrifugation (2000 rpm, 4° C., two minutes), and the pellets were washed with SB. Then, 1 μg/mL RPE fluorescently labeled goat anti-human antibody (manufactured by Southern Biotech) was added, and the plate was incubated at ice temperature for 30 minutes. After washing with SB, the cells were suspended in SB, and the fluorescence intensities of the cells were measured with a flow cytometer FACS CANTO II (manufactured by Becton Dickinson). The results are shown in FIGS. 12A to 12C and FIGS. 13A and 13B.

[13] = molecular target: T4, extracellular domain protein of rat MOG …; assay: SPR as in Example 8 (antibody captured, rMOG-GST analyte)
Description: as §4
Binding of the bispecific antibodies obtained in Example 6 and Example 16 to MOG was evaluated by the same method as that of Example 8.

[14] = molecular target: T3, human MOG (hMOG) expressed on HEK293, …; assay: flow cytometry, hMOG/L929 cells
Text: as §5, §6

[15] = molecular target: T4, extracellular domain protein of rat MOG …; assay: SPR as in Example 8 (antibody captured, rMOG-GST analyte); remark: listed apart in the source
Description: as §4

T5 sequence (chain, as listed by the source limits assumed): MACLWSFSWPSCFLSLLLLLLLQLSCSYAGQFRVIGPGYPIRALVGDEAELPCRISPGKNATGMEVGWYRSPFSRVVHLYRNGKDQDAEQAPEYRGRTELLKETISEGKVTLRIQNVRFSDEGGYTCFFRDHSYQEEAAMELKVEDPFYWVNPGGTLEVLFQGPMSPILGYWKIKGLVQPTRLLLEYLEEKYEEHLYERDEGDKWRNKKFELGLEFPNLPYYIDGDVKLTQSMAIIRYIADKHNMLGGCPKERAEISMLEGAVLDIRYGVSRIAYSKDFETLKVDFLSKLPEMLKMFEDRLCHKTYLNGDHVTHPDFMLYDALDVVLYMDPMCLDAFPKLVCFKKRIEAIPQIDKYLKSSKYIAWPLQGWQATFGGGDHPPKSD

B1: MOG14 antibody (anti-MOG human IgG antibody expressed from N5KG4PE_MOG14) (antibody, V domains shown)
VH: QVQLVQSGAEVKKPGASVKVSCQASGYTFTGDYIHWVRQAPGQGLEYLGWINPDRGFTYYTQKFQGRVTMTRDTSSNTAYMELSSLRSDDTAMYYCTRENPRAYFFDLWGQGTLVTVSS
VL: EIVLTQSPGTLSLSPGERATLSCRASQSISGSYVTWYQQKPGQAPRLLIYATSNRAIGIPDKFSGGGSGRDFTLTINRLEPEDFAVYYCQQSVSSPYTFGQGTKVEIK
[1]
  binding result: binds
[2]
  binding result: binds
[3]
  binding result: binds
[4]
  Kd: 40 nM
  koff: 0.00019 s⁻¹
  kon: 4700 M⁻¹ s⁻¹

B2: MOG01 scFv-hG4PE (Fc fusion)
chain: QVQLQQSGAGLLKPSETLSLTCAVSGGSFSGYYWTWIRQRPGKGLEWIGEINHRGSTDYNPSLKSRVTMSIDTSKSQFSLNLKSVTAADTAVYYCARAAWGSCYDGTCYPAEYFQYWGQGTLVTVSSGGGGSGGRASGGGGSQSALTQPASVSGSPGQSITISCTGTSRDVGGYNYVSWYQQHPGKAPKLMIYDVNNRPSGVSNRFSGSKSGNTASLTISGLQAEDEADYFCSSYTSSSTPVVFGGGTKLTVL
[5]
  Kd: 6.9 nM
[6]
  kon: 4.1e+06 M⁻¹ s⁻¹
[7]
  koff: 0.015 s⁻¹
[8]
  Kd: 3.6 nM
[9]
  kon: 5.9e+06 M⁻¹ s⁻¹
[10]
  koff: 0.04 s⁻¹

B3: iMOG-3Rim1-S32 antibody (VHH-Fc expressed from N5G4PEFc_iMOG-3Rim1-S32) (Fc fusion)
chain: QVQLVESGGGLVQTGGSLRLSCAASGSMFSTMGWFRQAPGNQRELVAIMSSGGTANYADSVKGRFTISGDNVKNTVTLQMNSLNPEDTAVYYCRFTGWVKSSFSTYWGQGTQVTVSS
notes: not shown: Fc region of human IgG4PE
[11]
  binding result: no binding (tested: 10 µg/mL)

B4: MOG01 antibody (anti-MOG human IgG antibody expressed from N5LG4PE_MOG01) (antibody, V domains shown)
VH: QVQLQQSGAGLLKPSETLSLTCAVSGGSFSGYYWTWIRQRPGKGLEWIGEINHRGSTDYNPSLKSRVTMSIDTSKSQFSLNLKSVTAADTAVYYCARAAWGSCYDGTCYPAEYFQYWGQGTLVTVSS
VL: QSALTQPASVSGSPGQSITISCTGTSRDVGGYNYVSWYQQHPGKAPKLMIYDVNNRPSGVSNRFSGSKSGNTASLTISGLQAEDEADYFCSSYTSSSTPVVFGGGTKLTVL
notes: also called anti-MOG01 human IgG antibody; MOG01 IgG4PE
[1]
  binding result: binds
[2]
  binding result: binds
[3]
  binding result: binds
[4]
  Kd: 6.6 nM
  koff: 0.00095 s⁻¹
  kon: 140000 M⁻¹ s⁻¹

B5: AVM IgG4PE(R409K)_MOG01 Fab antibody (bispecific antibody)
heavy 1: not shown
heavy 2: QVQLQQSGAGLLKPSETLSLTCAVSGGSFSGYYWTWIRQRPGKGLEWIGEINHRGSTDYNPSLKSRVTMSIDTSKSQFSLNLKSVTAADTAVYYCARAAWGSCYDGTCYPAEYFQYWGQGTLVTVSSASTKGPSVFPLAPCSRSTSESTAALGCLVKDYFPEPVTVSWNSGALTSGVHTFPAVLQSSGLYSLSSVVTVPSSSLGTKTYTCNVDHKPSNTKVDKRV
light: QFVLSQPNSVSTNLGSTVKLSCKRSTGNIGSNYVSWYQQHEGRSPTTMIYRDDKRPDGVPDRFSGSIDRSSDSALLTINNVQTEDEADYFCQSYSSGINIFGGGTKLTVLGQPKAAPSVTLFPPSSEELQANKATLVCLISDFYPGAVTVAWKADSSPVKAGVETTTPSKQSNNKYAASSYLSLTPEQWKSHRSYSCQVTHEGSTVEKTVAPTECS
[12]
  binding result: binds
[13]
  Kd: 34 nM
  koff: 0.0035 s⁻¹
  kon: 100000 M⁻¹ s⁻¹

B6: AVM IgG4PE(R409K)_MOG01dscFv7 antibody (bispecific antibody)
heavy: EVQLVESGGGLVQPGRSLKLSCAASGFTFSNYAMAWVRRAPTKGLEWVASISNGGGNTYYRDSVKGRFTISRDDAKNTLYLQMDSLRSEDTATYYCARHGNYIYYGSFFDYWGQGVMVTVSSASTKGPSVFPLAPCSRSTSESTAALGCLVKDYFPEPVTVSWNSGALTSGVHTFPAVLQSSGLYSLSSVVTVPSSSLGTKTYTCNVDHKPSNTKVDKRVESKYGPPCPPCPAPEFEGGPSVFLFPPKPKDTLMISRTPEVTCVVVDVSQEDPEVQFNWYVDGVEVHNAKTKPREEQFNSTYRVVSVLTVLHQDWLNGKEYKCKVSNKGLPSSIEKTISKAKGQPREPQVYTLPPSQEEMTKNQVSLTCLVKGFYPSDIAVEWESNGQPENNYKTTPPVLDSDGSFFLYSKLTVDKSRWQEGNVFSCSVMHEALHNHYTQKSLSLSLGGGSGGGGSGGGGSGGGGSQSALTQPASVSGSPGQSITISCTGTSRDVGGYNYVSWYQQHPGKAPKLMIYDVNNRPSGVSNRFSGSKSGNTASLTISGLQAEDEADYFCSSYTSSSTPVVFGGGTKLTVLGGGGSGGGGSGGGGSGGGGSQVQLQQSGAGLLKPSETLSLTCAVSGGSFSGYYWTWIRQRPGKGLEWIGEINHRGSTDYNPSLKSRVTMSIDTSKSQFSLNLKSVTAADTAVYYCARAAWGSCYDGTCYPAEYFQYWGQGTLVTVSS
light: B5 light
notes: also called pCI-AVM-hLG4PE(R409K)_MOG01scFv7
[14]
  binding result: binds

B7: AVM IgG4PE(R409K)_MOG01dscFv5 antibody (bispecific antibody)
heavy: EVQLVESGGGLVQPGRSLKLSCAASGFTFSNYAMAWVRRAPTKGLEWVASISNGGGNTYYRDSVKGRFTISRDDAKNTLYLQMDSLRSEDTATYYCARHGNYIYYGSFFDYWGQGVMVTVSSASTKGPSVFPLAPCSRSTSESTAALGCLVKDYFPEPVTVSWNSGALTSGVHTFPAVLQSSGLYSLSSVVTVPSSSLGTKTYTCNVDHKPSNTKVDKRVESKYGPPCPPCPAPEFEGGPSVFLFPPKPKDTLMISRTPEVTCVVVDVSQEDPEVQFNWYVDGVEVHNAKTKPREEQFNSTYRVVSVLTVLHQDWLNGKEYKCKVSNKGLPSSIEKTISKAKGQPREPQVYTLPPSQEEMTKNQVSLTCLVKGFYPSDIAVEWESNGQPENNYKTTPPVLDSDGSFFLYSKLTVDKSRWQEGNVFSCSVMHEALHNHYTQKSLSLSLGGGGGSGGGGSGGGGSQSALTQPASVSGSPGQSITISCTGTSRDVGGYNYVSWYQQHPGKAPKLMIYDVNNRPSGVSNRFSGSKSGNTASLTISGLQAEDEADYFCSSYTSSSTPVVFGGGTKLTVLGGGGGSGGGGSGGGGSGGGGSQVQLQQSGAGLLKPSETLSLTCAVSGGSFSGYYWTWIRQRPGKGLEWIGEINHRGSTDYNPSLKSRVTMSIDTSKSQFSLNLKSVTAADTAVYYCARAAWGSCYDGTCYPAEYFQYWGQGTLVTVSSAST
light: B5 light
notes: also called pCI-AVM-hLG4PE(R409K)_MOG01scFv5
[14]
  binding result: binds
[13]
  Kd: 24 nM
  koff: 0.0048 s⁻¹
  kon: 200000 M⁻¹ s⁻¹

B8: AVM IgG4PE(R409K)_MOG01dscFv6 antibody (bispecific antibody)
heavy: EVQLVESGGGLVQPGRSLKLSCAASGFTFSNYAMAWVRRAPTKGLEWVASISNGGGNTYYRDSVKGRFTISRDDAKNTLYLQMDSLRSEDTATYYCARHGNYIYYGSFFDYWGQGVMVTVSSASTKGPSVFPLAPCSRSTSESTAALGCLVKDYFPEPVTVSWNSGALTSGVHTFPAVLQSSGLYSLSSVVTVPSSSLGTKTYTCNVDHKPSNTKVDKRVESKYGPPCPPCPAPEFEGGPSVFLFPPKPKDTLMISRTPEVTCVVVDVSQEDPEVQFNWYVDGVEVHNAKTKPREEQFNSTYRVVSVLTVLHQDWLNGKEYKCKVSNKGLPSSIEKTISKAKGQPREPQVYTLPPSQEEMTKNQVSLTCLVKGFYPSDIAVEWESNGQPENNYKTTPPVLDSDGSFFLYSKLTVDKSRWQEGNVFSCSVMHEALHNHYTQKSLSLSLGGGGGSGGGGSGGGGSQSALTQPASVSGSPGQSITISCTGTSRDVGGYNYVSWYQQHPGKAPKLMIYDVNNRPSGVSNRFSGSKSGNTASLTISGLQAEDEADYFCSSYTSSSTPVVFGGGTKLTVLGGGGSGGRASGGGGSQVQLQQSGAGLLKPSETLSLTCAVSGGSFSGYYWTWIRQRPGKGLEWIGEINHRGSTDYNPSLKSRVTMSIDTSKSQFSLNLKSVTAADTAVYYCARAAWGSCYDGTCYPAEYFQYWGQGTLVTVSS
light: B5 light
notes: also called pCI-AVM-hLG4PE(R409K)_MOG01scFv6
[14]
  binding result: binds

B9: AVM IgG4PE(R409K)_MOG01dscFv antibody (bispecific antibody)
heavy: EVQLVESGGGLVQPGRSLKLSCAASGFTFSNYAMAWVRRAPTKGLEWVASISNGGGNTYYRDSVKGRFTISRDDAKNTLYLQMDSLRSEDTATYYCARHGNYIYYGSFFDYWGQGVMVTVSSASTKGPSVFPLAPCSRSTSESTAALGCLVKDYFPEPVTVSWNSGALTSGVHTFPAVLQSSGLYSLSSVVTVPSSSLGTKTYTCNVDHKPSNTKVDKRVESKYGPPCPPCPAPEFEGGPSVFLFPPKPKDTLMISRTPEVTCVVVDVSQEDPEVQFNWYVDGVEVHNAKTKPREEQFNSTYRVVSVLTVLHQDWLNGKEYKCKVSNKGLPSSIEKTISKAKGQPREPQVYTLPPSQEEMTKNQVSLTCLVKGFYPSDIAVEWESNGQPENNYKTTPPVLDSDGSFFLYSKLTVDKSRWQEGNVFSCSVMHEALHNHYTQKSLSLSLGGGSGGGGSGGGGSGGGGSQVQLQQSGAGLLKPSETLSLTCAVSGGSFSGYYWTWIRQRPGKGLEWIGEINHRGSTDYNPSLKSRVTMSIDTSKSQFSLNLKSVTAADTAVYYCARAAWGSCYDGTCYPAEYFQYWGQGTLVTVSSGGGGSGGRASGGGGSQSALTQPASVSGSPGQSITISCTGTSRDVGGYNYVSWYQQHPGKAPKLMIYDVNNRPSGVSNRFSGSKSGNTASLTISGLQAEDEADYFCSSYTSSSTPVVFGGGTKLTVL
light: B5 light
notes: MOG01 scFv fused to the C-terminus of anti-AVM IgG; also called pCI-AVM-hLG4PE(R409K)_MOG01scFv
[15]
  Kd: 200 nM
  koff: 0.0046 s⁻¹
  kon: 23000 M⁻¹ s⁻¹
[13]
  Kd: 200 nM
  koff: 0.0049 s⁻¹
  kon: 24000 M⁻¹ s⁻¹

B10: AVM IgG4PE(R409K)_MOG01dscFv3 antibody (bispecific antibody)
heavy: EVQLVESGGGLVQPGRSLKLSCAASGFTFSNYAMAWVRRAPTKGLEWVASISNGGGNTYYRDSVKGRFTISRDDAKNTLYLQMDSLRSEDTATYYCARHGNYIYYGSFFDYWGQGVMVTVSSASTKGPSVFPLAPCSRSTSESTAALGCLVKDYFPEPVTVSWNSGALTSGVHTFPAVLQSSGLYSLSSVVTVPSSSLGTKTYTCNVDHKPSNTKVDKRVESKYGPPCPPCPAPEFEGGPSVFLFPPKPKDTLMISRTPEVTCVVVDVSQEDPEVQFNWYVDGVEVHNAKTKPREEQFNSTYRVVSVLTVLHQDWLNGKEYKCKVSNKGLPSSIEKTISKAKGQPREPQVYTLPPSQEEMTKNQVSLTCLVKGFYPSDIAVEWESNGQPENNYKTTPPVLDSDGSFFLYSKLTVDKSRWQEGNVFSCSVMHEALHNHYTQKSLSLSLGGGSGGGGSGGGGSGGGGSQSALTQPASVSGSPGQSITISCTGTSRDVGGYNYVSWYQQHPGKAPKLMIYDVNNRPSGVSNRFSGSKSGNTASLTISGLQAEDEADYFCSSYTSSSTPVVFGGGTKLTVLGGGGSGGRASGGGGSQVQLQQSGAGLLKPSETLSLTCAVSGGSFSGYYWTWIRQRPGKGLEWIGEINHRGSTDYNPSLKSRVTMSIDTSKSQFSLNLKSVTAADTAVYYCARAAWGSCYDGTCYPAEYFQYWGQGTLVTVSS
light: B5 light
notes: also called pCI-AVM-hLG4PE(R409K)_MOG01scFv3
[14]
  binding result: binds
[13]
  Kd: 13 nM
  koff: 0.0022 s⁻¹
  kon: 170000 M⁻¹ s⁻¹
